For assay [1], the target named is α subunit of the oxygenase component of 3-nitrotoluene dioxygenase (3NTDO-ODS2) from Diaphorobacter sp. strain DS2 (Diaphorobacter sp. strain DS2). The assay is described as follows: crystal structure; oxygenase 3NTDO-ODS2 (α and β co-expressed and co-purified), hanging drop vapor diffusion at 277 K, 0.2M sodium citrate tribasic and 20% PEG 3350 pH 8.3; molecular replacement with 1NDO; 2.9 Å.

Assay [2] deals with β subunit of the oxygenase component of 3-nitrotoluene dioxygenase (3NTDO-ODS2) from Diaphorobacter sp. strain DS2 (Diaphorobacter sp. strain DS2). The assay is described as above.

For the substance “α subunit of the oxygenase component of 3-nitrotoluene dioxygenase (3NTDO-ODS2) from Diaphorobacter sp. strain DS2 (natural protein)”, the stoichiometry N (usually the number of molecules, sites or subunits per partner or assembly) in assay [1] is 3. The substance “β subunit of the oxygenase component of 3-nitrotoluene dioxygenase (3NTDO-ODS2) from Diaphorobacter sp. strain DS2 (natural protein)” registered a stoichiometry N in assay [2] of 3.
